From PMC7164261

What was measured:
[1] = biological target: T1, Flag-ΔD1-TMIGD1 (human TMIGD1 lacking the membrane-distal Ig-like domain, AA 115-262) (human) (UniProt Q6UXZ0)
T1 sequence: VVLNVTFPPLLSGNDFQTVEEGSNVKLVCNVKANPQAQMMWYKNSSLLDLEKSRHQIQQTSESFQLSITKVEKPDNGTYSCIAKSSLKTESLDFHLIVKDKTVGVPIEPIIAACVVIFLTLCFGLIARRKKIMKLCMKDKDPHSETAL

[2] = biological target: T2, Flag-TMIGD1/WT (human TMIGD1, AA 30-262) stably expressed in MDCKII-TetOFF cells (human) (UniProt Q6UXZ0)
T2 sequence: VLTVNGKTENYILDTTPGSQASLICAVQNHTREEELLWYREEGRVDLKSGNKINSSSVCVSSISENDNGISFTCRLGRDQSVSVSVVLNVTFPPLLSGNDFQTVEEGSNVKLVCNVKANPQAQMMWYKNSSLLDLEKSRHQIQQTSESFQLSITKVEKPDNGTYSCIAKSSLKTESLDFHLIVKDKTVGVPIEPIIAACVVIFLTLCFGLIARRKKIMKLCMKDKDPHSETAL

B1: Myc-hSYNJ2BP (human SYNJ2BP full length, AA 2-145) (natural protein)
chain: NGRVDYLVTEEEINLTRGPSGLGFNIVGGTDQQYVSNDSGIYVSRIKENGAAALDGRLQEGDKILSVNGQDLKNLLHQDAVDLFRNAGYAVSLRVQHRLQVQNGPIGHRGEGDPSGIPIFMVLVPVFALTMVAAWAFMRYRQQL
recruitment of ΔD1-TMIGD1 from cell-cell contacts to mitochondria in Myc-SYNJ2BP-expressing MDCKII-TetOFF cells (immunofluorescence microscopy, fraction of cells) [1]: > 90%
recruitment of TMIGD1/WT from cytoplasmic compartments to mitochondria in Myc-SYNJ2BP-expressing MDCKII-TetOFF cells (immunofluorescence microscopy, fraction of cells) [2]: 75%
